Data published in PMC5472717.

Legend:
[1] = test system: Zur (zinc uptake regulator) (Streptomyces coelicolor A3(2) M145?); assay: EMSA; conditions: 5 uM ZnSO4; 20 mM Tris-HCl pH 7.8, 50 mM KCl, 1 mM DTT, 0.1 mg/ml BSA, 5% glycerol, 0.1 ug poly(dI-dC) per 20 ul, 0-20 uM ZnSO4, room temperature 20 min; gel 5% PAGE in TB …
[2] = biological target: Zur (zinc uptake regulator) of Streptomyces coelicolor (Streptomyces coelicolor); assay: native gel or EMSA; EMSA of purified Zur (0-90 nM) on 32P-labelled znuA and zitB DNA probes (25, 33, 46, 114 bp) with 0-20 uM ZnSO4; 20 mM Tris-HCl pH 7.8, 50 mM KCl, 1 mM DTT, room temperature; the number of Zur chains in each shifted band was estimated from mobility on native PAGE at different acrylamide percentages; Zur oligomers seen only on DNA

stoichiometry N [2] | Substance | Kd [1] [nM]
– | GCACATGACAACGGTGTTCAGTGCC (double strand) [zitB 25 bp Zur-box probe (-63 to -39)] | 19.3
2 | Zur (zinc uptake regulator) of Streptomyces coelicolor (natural protein) | –
